The data set in a line: yeast display, Sf9 membrane polyspecificity reagent, FACS + sequencing; frameworks hold sequencing errors. In outline:
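Genes from sorted yeast were amplified by colony PCR, read by MiSeq 2 × 250 sequencing and filtered on CDR length. These cells carried a synthetic nanobody library in Saccharomyces cerevisiae BJ5465 and were sorted by FACS into low and high (top ~1%) gates on anti-HA and streptavidin fluorescence. Polyreactivity is labelled according to the gate of origin.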
With “QVQLVESGGGLVQAGGSLRLSCASSGSIFLSYTMGWYRKAPGKERELVAAISKRGGSSYYADSVKGRFTISRDNAKNTVYFQMNTLIPEDTAVYYFNADVRYRRRISVTNVYDYWGQGTQVTVSS”, the “polyreactivity (PSR sort gate)” value was “high polyreactivity”.
As to “QVQLVESGGGLVQAGGSLRLSCASSGSIFNTYTMGWYRQAPGKDRELVAAISSGGSTYYADSVKGRFTISRDNAKKTVYLQMNSLKPEDTAVYYCAAYGHSFQIYDYWGQGTHVTVSS”, the “polyreactivity (PSR sort gate)” value is “low polyreactivity”.
The value for “QVQLVESGGGLVQAGGSLRLSCASSGSIFRFNVMGWYRQAPGKERELVAAITRGDSTNYADSVKGRFTISRDNAKNTVYLQMNSLKPEDTAVYYCNARLYVPYRYDYWGQGTQVTVSS” was “low polyreactivity”; that for “QVQLVESGGGLVQAGGSLRLSCASSGSIFRRYAMGWYRQATGKERELVAAISSNGGSTYYADSVKGRFTISRDNAKNTVYLQLNSLKPEDTAGYYCNAQVVHYRVSSVITYTIYDYWGQGTQVTVSS” was “high polyreactivity”; that for “QVQLVESGGGLVQAGGSLRLSCASSGSIFSYYAKGWYIQAPGKASQLVADISQSGGTTYYADSVKGRFTISRDNAKNTVYLLKNSLKPEETAVYYCAARAPSSFDTQYYYWGEGTQVTVSS” was “low polyreactivity”.
For the sequence “QVQLVESGGGLVQAGGSLRLSCASSGSIFYTYAMGWYRQAPGKERELVAAISRSGGSTYYADSVKGRFTISRDNAKNTVYLQMNSLKPEDTAVYYCAAVSYRGRGYWGQGTQVTVSS”, the “polyreactivity (PSR sort gate)” value was “high polyreactivity”.
Take “QVQLVESGGGLVQAGGSLRLSCASSGSIINRYAMGGYRQAPGKERELVAAITQSGGRTYYADSVKGRFTISRDNAKNTVYLQMNSLKPEDTAVYYCNAVRWYLYDYWGQGTQVTVSS”: the “polyreactivity (PSR sort gate)” value is on record as “high polyreactivity”.
To “QVQLVESGGGLVQAGGSLRLSCASSGSTFARNAMGWYRQAPGKERELVAAISWRGGSTYYADSVKGRFTISRDNAKNTVYLQKNSLKPEDTAVYYCAADGAYWRGTGYEYWGQGTQVTVSS” belongs “high polyreactivity”; to “QVQLVESGGGLVQAGGSLRLSCASSGSTFGINAMGGYREAPGKERELVAAITFISGSTNYADSVKGRFTISRDKAKNTVNLQMNCLKPEDTAVYYCAADSVYYAGYDVDYWGQGTQVTVSS”, “low polyreactivity”.
With “QVQLVESGGGLVQAGGSLRLSCASSGSTFGPYTMGWYTQAPGKERELVATISSGGSTYYADSVKGRFTISRDNAKYTVYLQMKSLKPEDTAVYYCAARYWSIYDYWGQGTQVTVSS”, the “polyreactivity (PSR sort gate)” value is recorded as “low polyreactivity”.
The value for “QVQLVESGGGLVQAGGSLRLSCASSGSTFLINAMGWYRQAPGKERELVAAISRDGSTNYADSVKGRFTISRDNAKNTVYLQMHSLIPEDTAVYSCAAVPGISVGRQPGYDYDYWGQGTQVTVSS” was “low polyreactivity”.
To “QVQLVESGGGLVQAGGSLRLSCASSGSTFPSYAMGWYRQAPGKERELVAAINSGGGTNYADSVKGRFTISRDNAKNTVYLQMNSLKPEDTAVYYCAAYEGTYFTEVDYWGQGTQVTVSS” belongs “low polyreactivity”.
To “QVQLVESGGGLVQAGGSLRLSCASSGSTFRKNTMGWYIPAPGKEREFVAAISRSGGSTYYADSVKGRFTISRDNAKNTVYLQMNSLKPEDTAVYYCAASYYPHQYSYELGDYWGQGTQVTVSS” belongs “low polyreactivity”; to “QVQLVESGGGLVQAGGSLRLSCASSGSTFSRYALGWYRQAPGKERELVAAITSYGGSTYYADSVKGRFTISRDKAKNTFYLQMNSLKPEYTAVYYCAASYQVRYDYWGQGTQVTVSS”, “high polyreactivity”.
As for “QVQLVESGGGLVQAGGSLRLSCASSGSTFTRYAMGWYRQAPGKERELVAAINSSGGRTYYADSVKGRFTISRDNAKNTVYLQMNSLKPEDTAVYYCAATRGRYREDEDYWGQGTQVTVSS”, the “polyreactivity (PSR sort gate)” value was “high polyreactivity”.
For the sequence “QVQLVESGGGLVQAGGSLRLSCASSGSTFWPNAMGWYRQAPGKERELVAAITGGGGTNYADSVKGRFTISRDNAKNTVYLQMNSLKPEDTAVYYCAAKKVNSRSHVKYYYWGQGTQVTVSS”, the “polyreactivity (PSR sort gate)” value is listed as “high polyreactivity”.
The value for “QVQLVESGGGLVQAGGSLRLSCASSGSTSYRYAMGWYRQAPGKERELVAAISSSGGSTYYADSVKGRFTISRDNAKNTVYLQMNSLKPEDTAVYYCAARFYSGPGGYTMYYWGQGTQVTVSS” was “high polyreactivity”; that for “QVQLVESGGGLVQAGGSLRLSCASSGTIFKYSAMGWYIQAPGKEREFVAGISWSGGRTYYADSVKGRFTISRDNAKITVYLHMNSLKPEDTAVYYCARVRLTSYGYYSWGQGTQVTVSS” was “high polyreactivity”; that for “QVQLVESGGGLVQAGGSLRLSCASSGTIFSWYTMGRYRQAPGKERELVARITTSGGTTRYADSVKGRFTISRDNAKNTVYFQINSLKPEDTAVYYCAADRSPYWRGYFRYNYWGQGSQVTVSS” was “high polyreactivity”.
To “QVQLVESGGGLVQAGGSLRLSCASSGTLYRYAMGWYIQATGKERELVAAISSNGGSTYYADSVKGRFTISRDNEKNTVYLQMNSLKPEDTAVYYCNALSRRFPLYGFWGQGTQVTVSS” belongs “high polyreactivity”; to “QVQLVESGGGLVQAGGSLRLSCASSGTTFQYYAMGSYRQAPGKERELVARISDSSANTYYADSVNGRFTISRDNAMNTVYLQMNSLKPEDTAVYYCAASVPYKFYCVVSVRYEYWGQGTQVTVSS”, “low polyreactivity”; to “QVQLVESGGGLVQAGGSLRLSCASSGYIITRKAMGWYRQAPGKERELVATISSRGGRTYYADSVKGRFTISRDNAKNTVYLQMNSLKPEDTAVYYCAATPWYRTRTYDYWGQGTQVTVSS”, “high polyreactivity”.
The value for “QVQLVESGGGLVQAGGSLRLSCASSGYTFTVNAMGWYRQAPGKERELVAAISGSGGSTYYADSVKGRFTISRDNAKNTVYLQMNSLKPEDTAVYYCAADYWYYYWPLDYWGQGTQVTVSS” was “high polyreactivity”; that for “QVQLVESGGGLVQAGGSLRLSCASSVSTVKYAMGWYRQAPGKERELVAAISKSAGRTYYADSVKGRFTISRDNAKNTVYLQMNSLKPVDTAVYYCADRQSYYGDDYWGQCTQVTVSS” was “high polyreactivity”.
As to “QVQLVESGGGLVQAGGSLRLSCASTGFTFYRYAMGWYRQARGKERELVAAITRSGSRTYYADSVKGRFTISRDNAKNTVYLQMNSLKPEDTAVYYCNAPRPASTDRRRYNYWGQGTQVTVSS”, the “polyreactivity (PSR sort gate)” value is “high polyreactivity”.
The value for “QVQLVESGGGLVQAGGSLRLSCASTGSTFTTYAMGWYRQPPGKERELVAAISSRSTRTYYADSVKGRFTISRDNAKNTVYLQMNSLKPEDTAVYYCAASVPWKYEYWGQGTQVTVSS” was “high polyreactivity”; that for “QVQLVESGGGLVQAGGSLRLSCATSGRTFRFNAMGWYRQAPGKEREFVAAITSGGGTYYADSVKGRFTISRDNAKNTLDLQMNSLKPEDTAVYYCAAPRQYYLMDYWGQGTQVTVSS” was “low polyreactivity”.
The value for “QVQLVESGGGLVQAGGSLRLSCATSGRTYVPAMGWYRQAPGKERALVAAITSSGITYYADSVKGRVTISRDNAKNTVYLQMNSLNPEDTAVYYCATSYSNRWGWKYNYWGQGTQVTVSS” was “high polyreactivity”; that for “QVQLVESGGGLVQAGGSLRLSCATSGYTFTRYAMGWYRQAPGKERELVASISKTGGITYYADSVKGRFTISRDNAKNTVYLQMNSLKPEDTAVYYCNAVSKRRWAKYDYWGQGTQVTVSS” was “high polyreactivity”.
For “QVQLVESGGGLVQAGGSLRLSCATYAMGWSRQAPGKERELVASIRSGSTYYADSVKGRFTISRDNAKNTVYLQMNSLKPEDTAVYYCAAYEIYYEFDSWGQGTQVTVSS”, the “polyreactivity (PSR sort gate)” value is “low polyreactivity”.
To “QVQLVESGGGLVQAGGSLRLSCDASAYIFVYNVMGWYRQAHGKERELVAAITSGGSTNYADSVKGRFTISRDNAKNTVYLQMNSLKPEDTAVYYCNAQFDLTFRGTGDYWGQGTQVTVSS” belongs “low polyreactivity”.
As for “QVQLVESGGGLVQAGGSLRLSCDASGFIFDHNAMGWYRQAPGKERELVAAISWGYGSTYYADSVKGRFTISRDNAKNTVYLQMNRLKTEDTAVYYCAARAVRYYAWVRGGCTSFDYWGQGTQVTVSS”, the “polyreactivity (PSR sort gate)” value is reported as “high polyreactivity”.
To “QVQLVESGGGLVQAGGSLRLSCDASGFIFLGNAMGWYRQAPGKERELVAAISSGGSTYADSVKGRFTISRDNAKNTVYLQMNSLKPEDTSVYYCAVERAFRAQNYHEYDYWGQGTQVTVSS” belongs “low polyreactivity”; to “QVQLVESGGGLVQAGGSLRLSCDASGFTFIRNGMGWYRQAPGKERELVAAINSRGGNTYYADSVKGRFTISRDNAKNTVYLQMNSLKPEDTAVYYCNRVVQRWSTQYGYWGQGTQVTVSS”, “high polyreactivity”.
Consider “QVQLVESGGGLVQAGGSLRLSCDASGFTFTAYAMGSYRQAPGKERELVAAINWSGSRTYYADSVKGRFTISRDNAKNTVYLQMNSLNPEDTAVYYCAAGWTSSRYDYWGQGTQVTVSS”, for which the “polyreactivity (PSR sort gate)” value is reported as “high polyreactivity”.
To “QVQLVESGGGLVQAGGSLRLSCDASGFTFYGNAMGWYRQAPGKERELVAAISGRGGSTYYADSVKGRFTISRDNAKNTVYLQMNSLKPEDTAVYYCAIYVSWPLYYYWGQGTQVTVSS” belongs “low polyreactivity”.
Take “QVQLVESGGGLVQAGGSLRLSCDASGFTIYRYAMGWYRQAPGKERELVAAISSGGGSTYYADSVKGRFTISRDNAKNTVYLQMYILKPEDNAVYYCNAQGFIYYWLRYDYWGQGTQVTVSS”: the “polyreactivity (PSR sort gate)” value is recorded as “high polyreactivity”.
To “QVQLVESGGGLVQAGGSLRLSCDASGLIFGPYTMGWYRQAPGKERELVAAISYGGVSTYYADSVKGRFTISRDNAKNTVYLQMNSLNPEDTAVYYCARGDSTRVIRPSAREYDYWGQGTQVTVSS” belongs “low polyreactivity”; to “QVQLVESGGGLVQAGGSLRLSCDASGLIFVDNAMGWYRQAPGKERELVAAIDSGGSTNYADSVKGRFTISRDNAKNTVYLQMNSLKPEDTAVYYCAANTYYWWGIMDYWGPGTQVTVSS”, “low polyreactivity”; to “QVQLVESGGGLVQAGGSLRLSCDASGLIFWRNAMGWYRQAPGKERELVAGITSGGSTYYADSVKGRFTISRDNAKNTVYLQMNCLKPEDTAVYYCAKSTWQSYYYPRGSVYWGQGTQVTVSS”, “high polyreactivity”.
“QVQLVESGGGLVQAGGSLRLSCDASGLIFYYYAMGWYRQAPGKERELVAAIRWSGGSTYYADSVKGRFTISRDNAKNTVYLQMNSLKPEDTAVYYCSEFYYWGQGTQVTVSS”: the “polyreactivity (PSR sort gate)” value was “high polyreactivity”.
